Data set [1] is classed as physicochemical. The protocol:
(§1) To evaluate in vitro the capacity of a VSP carrier to protect bioactive peptides from degradation, we evaluated the capacity of recombinant VSP1267 to protect human growth hormone (Somatotropin, hGH) (Biosidus, Argentina), an 191 amino acids long protein, from conditions similar to those present in the GIT. Similar to the previous analysis performed with the VSPs alone, the capacity of the VSP to protect hGH from degradation caused by extreme pHs or by enzymatic proteolysis was assayed.
The anti-hGH monoclonal antibody was subsequently used to determine the degree of resistance of hGH to different pHs. hGH was incubated at different pHs (1.6, 2.0, 3.8, 5.0, 5.8, 7.0, 8.0, 9.0, 10.0, and 11.0) for 90 minutes.

The format of data set [2] is physicochemical. Conditions: hGH combined with chimeric VSP protein (SEQ ID NO: 589) derived from T. thermophila and G. intestinalis. An excerpt: (§2) To determine if VSP-like proteins retain the Giardia VSP extracellular domain properties, and therefore can be used as VSP carriers or as components of chimeric VSP proteins, a DNA fragment of a Tetrahymena thermophila VSP-like protein encoding a VSP domain (TTHERM_00826790 hypothetical protein; SEQ ID NO: 590) was modified using stander molecular biology techniques to generate a chimeric VSP. The chimeric VSP protein (SEQ ID NO: 589) comprised the sequences encoding the signal peptide (SEQ ID NO: 591) of Giardia intestinalis VSP1267 and a His6 purification tag fused respectively to the amino terminus and carboxy terminus of the sequence of a VSP domain (SEQ ID NO: 592) located between amino acid positions 977 and 1465 of the VSP-like protein from Tetrahymena (SEQ ID NO: 590).
(§3) The chimeric VSP was cloned into a bacmid for expression in Sf9 insect cells. Once expressed and secreted to the culture supernatant, the chimeric VSP protein was purified on a Nickel column as described in Example 2.
(§4) The chimeric VSP protein was used to verify the stability of hGH to pH and trypsin sensitivity.

Data set [3] in a line: Serum hGH levels in mice after oral administration of hGH alone or with VSP carrier. In kind it is in vivo. Conditions: hGH alone, oral 50 to 800 μg, female Balb/c mice. The method, then:
hGH serum levels were tested after oral administration, evaluating different doses and measurement times, to determine the best dose for combination with the VSP carrier VSP1267 (FIG. 11A). As in previous experiments, female Balb/c mice, 7 weeks old, were left without food intake for 2 hours and then received the doses indicated in […] (i.e., 50, 100, 200, 400 and 800 μg of hGH). In a parallel experiment, hGH was administered subcutaneously (FIG. 11A, inset). […] Thus, a direct relationship between absorption and these variables (time and concentration) could not be determined.

For data set [4], the system named is trypsin. In kind it is in vitro ADME. As to conditions: hGH combined with chimeric VSP protein (SEQ ID NO: 589) derived from T. thermophila and G. intestinalis.
Source text: as §2, §3, §4

Data set [5] deals with trypsin. The data set can be described thus: hGH stability to trypsin, without or with VSP carrier (Western blot, silver staining). Format: in vitro ADME. The protocol:
as §1
hGH was also treated for 90 min at 37° C. with several concentrations of trypsin (0, 100, 150, 200, and 500 μg/mL). […] This protective effect was observed up to a 150 μg/mL trypsin concentration.
Background: In western blotting, separated proteins are transferred to a membrane and probed.

The format of data set [6] is physicochemical. As to conditions: in the presence of VSP; no degradation after incubation at pH 2.
Protocol: To assess in vitro the capacity of VSP carriers to protect IL-2 from degradation, the capacity of a VSP carrier (e.g., recombinant VSP1267) to protect human IL-2 from conditions similar to those present in the GIT was evaluated. The capacity of the VSP to protect IL-2 from degradation caused by extreme pHs or by enzymatic proteolysis (e.g., by trypsin and/or pancreatine) was assayed using the methods described in the Examples above.
IL-2 alone or mixed with VSP carrier was incubated at different pHs or with different concentration of proteolytic enzymes such as trypsin. The presence of IL-2 after the pH and proteolyitc enzyme challenges was detected using Coomassie stain of SDS-PAGE gels.
For data set [7], the system named is trypsin. Description: Western blot of VSPs after trophozoite trypsinization. In kind it is in vitro ADME. As to conditions: trophozoites, trypsin 200 μg/mL and 2 mg/mL, 90 min at 37° C., PBS pH 7.4, Western blot. The method, then:
Giardia parasite clones WB-9B10, WB-1267 and GS-H7 (expressing, respectively, the VSP9B10, VSP1267 and VSPH7 VSPs) were resuspended in PBS at pH 7.4 and treated for 90 min at 37° C. with variable concentrations of trypsin (200 μg/mL and 2 mg/mL). Then, the parasites were lysed and equivalent protein amounts were applied to each lane in the SDS-PAGE gels.

Data set [8] is described as follows: pH resistance assay of VSPs on Giardia trophozoites (immunofluorescence). As to conditions: trophozoites in RPMI, pH 1 to pH 10, 90 minutes, immunofluorescence microscopy. In kind it is physicochemical. The protocol:
To determine whether VSPs are resistant to variable pH and to proteolytic digestion, two different Giardia isolates (clonal trophozoite populations) were treated with trypsin and with variable pH and the effect of those conditions on the VSP expressed by each isolate were monitored using immunofluorescence assays.
For the pH resistance assay. Giardia parasites were resuspended in RPMI cell culture medium at variable pHs, from pH 1 to pH 10. in 1 pH unit increments (only pH 1, 3, 5 and 10 are shown in FIG. 2B). Giardia parasites were kept at the different pHs for 90 minutes, washed, and then incubated with the corresponding monoclonal antibody.

“Also recorded” adds a separate entry of the source.

For Somatotropin [hGH], the “change of hGH degradation levels with VSP carrier at different pHs” value in data set [1] was “no significant changes”. Further, the “protection of hGH from degradation at low pH” value in data set [2] is “able to protect hGH from degradation”. Also, in data set [3], the “oral absorption of hGH (serum levels) compared with subcutaneous” value is “much lower levels than subcutaneously absorption”; the “variability of oral absorption regarding times and amounts” value is recorded as “highly variable”. In the data set with trypsin [4], the “protection of hGH from degradation by trypsin” value is recorded as “able to protect hGH from degradation”. For the same molecule, in the data set on trypsin [5] (VSP carrier added at 3:1 VSP/hGH (1:3 hGH to VSP) ratio), the “protection of hGH from trypsin degradation” value is “able to protect hGH from trypsin degradation; also recorded: protects hGH from trypsin degradation”. Besides, the “hGH degradation by trypsin” value in the data set with trypsin [5] (hGH alone, 90 min at 37° C., trypsin 100 to 500 μg/mL) is listed as “rapidly degraded even at the lowest protease concentrations; also recorded: completely proteolyzed”.
As to “IL-10: human interleukin-10, anti-inflammatory cytokine”, the “resistance to low pH” value in data set [6] was “resistant”.

B1: VSPH7: Giardia variant-specific surface protein of the GS/M isolate, clone GS-H7 (Uniprot: Q24992) (protein, listed as Giardia intestinalis)
chain: MFLLINCLIASTLAGACSTTQANCVAEKCEMVGETEICTQCKQNYVPINGVCEAAASSNTKCQKASADEASDQTCGKCLSTTFMYKGGCYDKTGNLGRIICKTEGSDAGKCGACNDEKGFFDNPDAANNVDSCISCGDATGVTIPGSSTKTYKGVAGCAKCTKPSQISENTGTKEATCTECNANLYLKAVSSPTSATSCVSAEDCKTGYFPTTDTTDSKKKCLTCSTADKGGIDGCSACELLPSTTRASTVLISCSACSTNNLSPLKNECMQDCPAGTYADSNVCKPCHTSCASCKGDNTESSCTACYPGSVLSYGTDNTKGTCIAECTGKYLENCADGQCTATIAGSKYCSKCKSGFVPVNGLCVSAETARAAPPGSTPDKTNGVCTACTEKYFLESGGCYQAEKFPGNTLCTTADAGKCTTCANGQDKDSNGSCPACPTNCASCAKDNTKTCNKCFSGYYLDTAKACKKCSETSGNIQGVENCISCLAPTSPQSSTPVTCYVKTSGGGSGDNSTGGDSGPNLSSGAIAGISVAVIVVVGGLVGFLCWWFVCRGKA
With B1, the “VSP survival of exposure to trypsin” value with trypsin [7] is listed as “able to survive exposure to trypsin”. In data set [8], the “VSP epitopes after incubation at variable pHs” value was “remained intact”.

B2: VSP9B10: Giardia variant-specific surface protein of the WB isolate, clone WB-9B10 (Uniprot:Q9GS24) (protein, listed as Giardia intestinalis)
chain: MFGSFVLAGVLVQIAWAGKATERAQEAQCADNTNCAAEACNVLIGGKLYCSRCNTGFVPINGQCADKEGATDKCKDGSGGDTADQTCGQCAEQTFMYKGGCYEAAQQPGQTMCQAADAGVCTQAAQGYFVPPGADASHQSVIPCGDEEEITVKNDKKYKGVLHCTRCNAPTEAADANAKAATCTACQADRYLKTAKDQATSCVTEQECTGTEGFFAKNGGTKTCEACAETCKTCKTEAAKCTSCKDDKPYLKKDNGSDTGTCVTEAECKTGNTHYPDDTEPKTCKTCAEGTSDGCATCEKGADGAVACKTCGNQKKVQPNKKGCVENCPSNSNDKKTPGTCECVEGYVPEEAGTGCTKKPDPPAAPCNTPGCKTCSEPKTSKEVCTECEDPKALTPTGQCIYGCEHLEGYYEGTSEGGKKACKKCEVENCLLCNENGQCETCKDGYYKKETACAKCDTSCKTCANGEPNGCTSCEAKKALSYEGEGNTGTCKSECKPGTNNCEKCELTVDGTAYCSKCKDANQFPQNGVCSAAAGKAITCTTKGTGVCDKCANGLLRMNGGCYETTKFPGKSVCEEAASAGDTCQVEAPGYHLNNNDLVTCSAGCKTCTSNTVCTECMDGYAKTDNKCTKCATGCATCAGSASNCDTCSTGYYKYKNACVSCTESNSDKTITGVANCANCAPPLNNKGSVLCYLVQSGENTNKSGLSAGAIAGIAVAVIIVVGGLVGFLCWWFMCRGKA
As to B2, the “VSP survival of exposure to trypsin” value with trypsin [7] was “able to survive exposure to trypsin”. In data set [8], the “VSP epitopes after incubation at variable pHs” value is on record as “remained intact”.

B3: VSP1267: Giardia variant-specific surface protein expressed by clone WB-1267 (Uniprot:Q07317) (protein, listed as Giardia intestinalis)
chain: MLLIAFYLILSTFAVDCKNSGNSCEAGQCDTIGDTEICMQCNQGKVPINGICTAHSEEAVTNAGCKKNGGTNIEESDKVCGQCGNGYFLHKGGCYKIGEAPGNLICADEASNPGARTAGVCGACKDGYYKNSDAVATADSCIACEDANCATCGGAGENKCTKCIDGYFVGATGNEGGCIKCDATTGPNSYKGVAGCAKCEKPKNAGPAKCIECAADYLKTEADEQTSCVSEAVCREGKTHFPTTDSAGGNKKVCVSCGTTNNGGIENCGECTSKESAARAGTEITCTKCSSNNLSPLGDACLTDCPAGTYAVSGDSGSVCKPCHNTCAGCQTDDRETSCTACYPGYSLLYESNGATGRCVKECTGAFITNCADGQCTANVGGAKYCTQCKDGYAPIDGICTAVAAAGRDVSVCTATGGKCTACTGNYALLSGGCYNTQTLPGKSVCKAVANSNDGKCKTCANGQAPDPATNFCPLCDSTCAECSTKNDADACTKCFPGYYKTGNKCIKCTESSNNGKKIDGIPDCLSCEAPINTGPVICYVKTDGTSDDNSGNGGDSTNKSGLSTGAIAGISVAAFVVVAGLVGFLCWWFICRGKA
Regarding B3, the “VSP survival of exposure to trypsin” value in the data set on trypsin [7] is reported as “able to survive exposure to trypsin”.

These data come from patent publication US9757471B2, “Protozoan variant-specific surface proteins (VSP) as carriers for oral drug delivery” (priority 2012, dated 2017).
